Data on one protein can be found in paper PMC8677862, “Substrate binding modes of purine and pyrimidine nucleotides to human ecto-5′-nucleotidase (CD73) and inhibition by their bisphosphonic acid derivatives” (Purinergic Signalling, 2021).

The Km is the concentration of substrate that gives half-maximal velocity.

Substrate in this data set: Nc1ncnc2c1ncn2[C@@H]1O[C@H](COP(=O)(O)O)[C@@H](O)[C@H]1O
Description: purified protein, by the assay type. Conditions: other: AMP 5-200 μM, 1.25 ng CD73; pH 7.5; 25.0 °C. Type of data set: biochemical, human. Here is the method:
In this study, enzyme activity and inhibition data was characterised using a modified malachite green assay. Each assay consisted of reaction buffer A (50 mM Tris–HCl pH 7.5, 100 mM NaCl, 1 mM MgCl2) to which the appropriate substrate and/or inhibitors (see Table S1) were added. Dissolved compounds were immediately used for the inhibition assays. The reactions were generally initiated by the addition of protein. The protein concentrations, substrates and inhibitors used for the various experiments are detailed below. In all experiments, reactions were monitored over a 10-min period during which samples were taken at regular intervals. At each desired time point, a malachite green/molybdate (1:1) solution was added to the sample, which simultaneously terminated the assay and also allowed the detection of the produced phosphate ions. These reaction mixtures were incubated at 25 °C for 25 min, followed by measurement of the absorbance at 620 nm. […]
The specific activity (μmol Pi/min/mg protein) was calculated from the initial reaction rates and was used to determine when the protein refolding process had reached completion. […] Kinetic values were determined by fitting the Michaelis–Menten equation to the initial reaction rates using GraphPad Prism (GraphPad Software, La Jolla, CA, USA). […]

B1: human CD73 (Homo sapiens; K145S/K147S/K478S/N311D/N333D/N403D/N53D/T376A) (protein)
chain: WELTILHTNDVHSRLEQTSEDSSKCVDASRCMGGVARLFTKVQQIRRAEPNVLLLDAGDQYQGTIWFTVYKGAEVAHFMNALRYDAMALGNHEFDNGVEGLIEPLLKEAKFPILSANISASGPLASQISGLYLPYKVLPVGDEVVGIVGYTSKETPFLSNPGTNLVFEDEITALQPEVDKLKTLNVNKIIALGHSGFEMDKLIAQKVRGVDVVVGGHSNTFLYTGNPPSKEVPAGKYPFIVTSDDGRKVPVVQAYAFGKYLGYLKIEFDERGNVISSHGNPILLDSSIPEDPSIKADINKWRIKLDDYSTQELGKTIVYLDGSSQSCRFRECNMGNLICDAMINNNLRHADEMFWNHVSMCILNGGGIRSPIDERNDGTITWENLAAVLPFGGTFDLVQLKGSTLKKAFEHSVHRYGQSTGEFLQVGGIHVVYDLSRKPGDRVVKLDVLCTSCRVPSYDPLKMDEVYKVILPNFLANGGDGFQMIKDELLRHDSGDQDINVVSTYISKMKVIYPAVEGRIKFS
notes: His6 (C); made in house
In the case of B1, the Km stood at 10.5 µM and the Vmax is on record as 301.2 U/mg.
